From the supplement of paper PMC11246515
± gives the standard deviation of the averaged measurements.

Assay: total protein half-life in vivo (active degradation + dilution); higher = more stable protein
[1] = E. coli NCM3722 delta-clpP delta-lon delta-hslV, growth: N-lim chemostat, doubling time 6 h
[2] = E. coli NCM3722 delta-clpP, growth: N-lim chemostat, doubling time 6 h
[3] = E. coli NCM3722 delta-hslV, growth: N-lim chemostat, doubling time 6 h
[4] = E. coli NCM3722 delta-lon, growth: N-lim chemostat, doubling time 6 h
[5] = E. coli NCM3722 delta-smpB, growth: N-lim chemostat, doubling time 6 h
[6] = wild type E. coli NCM3722, growth: C-lim chemostat, doubling time 3 h
[7] = wild type E. coli NCM3722, growth: C-lim chemostat, doubling time 6 h
[8] = wild type E. coli NCM3722, growth: C-lim chemostat, doubling time 12 h
[9] = wild type E. coli NCM3722, growth: N-lim chemostat, doubling time 6 h
[10] = wild type E. coli NCM3722, growth: N-lim chemostat, doubling time 12 h
[11] = wild type E. coli NCM3722, growth: P-lim chemostat, doubling time 6 h
[12] = wild type E. coli NCM3722, growth: P-lim chemostat, doubling time 12 h

Sequence	total protein half-life in vivo [1] [h]	total protein half-life in vivo [2] [h]	total protein half-life in vivo [3] [h]	total protein half-life in vivo [4] [h]	total protein half-life in vivo [5] [h]	total protein half-life in vivo [6] [h]	total protein half-life in vivo [7] [h]	total protein half-life in vivo [8] [h]	total protein half-life in vivo [9] [h]	total protein half-life in vivo [10] [h]	total protein half-life in vivo [11] [h]	total protein half-life in vivo [12] [h]
MNQNLLVTKRDGSTERINLDKIHRVLDWAAEGLHNVSISQVELRSHIQFYDGIKTSDIHETIIKAAADLISRDAPDYQYLAARLAIFHLRKKAYGQFEPPALYDHVVKMVEMGKYDNHLLEDYTEEEFKQMDTFIDHDRDMTFSYAAVKQLEGKYLVQNRVTGEIYESAQFLYILVAACLFSNYPRETRLQYVKRFYDAVSTFKISLPTPIMSGVRTPTRQFSSCVLIECGDSLDSINATSSAIVKYVSQRAGIGINAGRIRALGSPIRGGEAFHTGCIPFYKHFQTAVKSCSQGGVRGGAATLFYPMWHLEVESLLVLKNNRGVEGNRVRHMDYGVQINKLMYTRLLKGEDITLFSPSDVPGLYDAFFADQEEFERLYTKYEKDDSIRKQRVKAVELFSLMMQERASTGRIYIQNVDHCNTHSPFDPAIAPVRQSNLCLEIALPTKPLNDVNDENGEIALCTLSAFNLGAINNLDELEELAILAVRALDALLDYQDYPIPAAKRGAMGRRTLGIGVINFAYYLAKHGKRYSDGSANNLTHKTFEAIQYYLLKASNELAKEQGACPWFNETTYAKGILPIDTYKKDLDTIANEPLHYDWEALRESIKTHGLRNSTLSALMPSETSSQISNATNGIEPPRGYVSIKASKDGILRQVVPDYEHLHDAYELLWEMPGNDGYLQLVGIMQKFIDQSISANTNYDPSRFPSGKVPMQQLLKDLLTAYKFGVKTLYYQNTRDGAEDAQDDLVPSIQDDGCESGACKI	4.05 ± 0.63	3.93 ± 0.074	4.03 ± 0.099	4.24 ± 0.14	3.67 ± 0.52	3.07 ± 0.15	4.91 ± 0.43	9.24 ± 1.7	3.85 ± 0.23	5.89 ± 0.22	5.93 ± 0.08	11.1 ± 0.48
MNQPLLSVNNLTHLYAPGKGFSDVSFDLWPGEVLGIVGESGSGKTTLLKSISARLTPQQGEIHYENRSLYAMSEADRRRLLRTEWGVVHQHPLDGLRRQVSAGGNIGERLMATGARHYGDIRATAQKWLEEVEIPANRIDDLPTTFSGGMQQRLQIARNLVTHPKLVFMDEPTGGLDVSVQARLLDLLRGLVVELNLAVVIVTHDLGVARLLADRLLVMKQGQVVESGLTDRVLDDPHHPYTQLLVSSVLQN	–	–	–	–	–	–	4.8	–	–	–	0.314	1.09 ± 0.26
MNQQDIEQVVKAVLLKMQSSDTPSAAVHEMGVFASLDDAVAAAKVAQQGLKSVAMRQLAIAAIREAGEKHARDLAELAVSETGMGRVEDKFAKNVAQARGTPGVECLSPQVLTGDNGLTLIENAPWGVVASVTPSTNPAATVINNAISLIAAGNSVIFAPHPAAKKVSQRAITLLNQAIVAAGGPENLLVTVANPDIETAQRLFKFPGIGLLVVTGGEAVVEAARKHTNKRLIAAGAGNPPVVVDETADLARAAQSIVKGASFDNNIICADEKVLIVVDSVADELMRLMEGQHAVKLTAEQAQQLQPVLLKNIDERGKGTVSRDWVGRDAGKIAAAIGLKVPQETRLLFVETTAEHPFAVTELMMPVLPVVRVANVADAIALAVKLEGGCHHTAAMHSRNIENMNQMANAIDTSIFVKNGPCIAGLGLGGEGWTTMTITTPTGEGVTSARTFVRLRRCVLVDAFRIV	5.64 ± 1.3	–	–	–	–	–	–	–	–	–	–	–
MNRFIMANSQQCLGCHACEIACVMAHNDEQHVLSQHHFHPRITVIKHQQQRSAVTCHHCEDAPCARSCPNGAISHVDDSIQVNQQKCIGCKSCVVACPFGTMQIVLTPVAAGKVKATAHKCDLCAGRENGPACVENCPADALQLVTDVALSGMAKSRRLRTARQEHQPWHASTAAQEMPVMSKVEQMQATPARGEPDKLAIEARKTGFDEIYLPFRADQAQREASRCLKCGEHSVCEWTCPLHNHIPQWIELVKAGNIDAAVELSHQTNTLPEITGRVCPQDRLCEGACTIRDEHGAVTIGNIERYISDQALAKGWRPDLSHVTKVDKRVAIIGAGPAGLACADVLTRNGVGVTVYDRHPEIGGLLTFGIPSFKLDKSLLARRREIFSAMGIHFELNCEVGKDVSLDSLLEQYDAVFVGVGTYRSMKAGLPNEDAPGVYDALPFLIANTKQVMGLEELPEEPFINTAGLNVVVLGGGDTAMDCVRTALRHGASNVTCAYRRDEANMPGSKKEVKNAREEGANFEFNVQPVALELNEQGHVCGIRFLRTRLGEPDAQGRRRPVPVEGSEFVMPADAVIMAFGFNPHGMPWLESHGVTVDKWGRIIADVESQYRYQTTNPKIFAGGDAVRGADLVVTAMAEGRHAAQGIIDWLGVKSVKSH	5.28	–	–	–	–	–	–	1.34	–	–	–	–
MNRIEHYHDWLRDAHAMEKQAESMLESMASRIDNYPELRARIEQHLSETKNQIVQLETILDRNDISRSVIKDSMSKMAALGQSIGGIFPSDEIVKGSISGYVFEQFEIACYTSLLAAAKNAGDTASIPTIEAILNEEKQMADWLIQNIPQTTEKFLIRSETDGVEAKK	4.867 ± 0.043	4.24 ± 0.64	6.68 ± 0.67	4.5 ± 0.39	3.94 ± 0.3	3.17 ± 0.17	5.22 ± 0.1	10.5 ± 1.5	4.14 ± 0.32	6.67 ± 0.1	5.2 ± 0.7	11.1 ± 0.76
MNRIYACPVADVPEGEALRIDTSPVIALFNVGGEFYAINDRCSHGNASMSEGYLEDDATVECPLHAASFCLKTGKALCLPATDPLTTYPVHVEGGDIFIDLPEAQP [P0ABW0]	–	–	–	–	–	–	–	–	–	–	–	2.53
MNRLPSSASALACSAHALNLIEKRTLDHEEMKALNREVIEYFKEHVNPGFLEYRKSVTAGGDYGAVEWQAGSLNTLVDTQGQEFIDCLGGFGIFNVGHRNPVVVSAVQNQLAKQPLHSQELLDPLRAMLAKTLAALTPGKLKYSFFCNSGTESVEAALKLAKAYQSPRGKFTFIATSGAFHGKSLGALSATAKSTFRKPFMPLLPGFRHVPFGNIEAMRTALNECKKTGDDVAAVILEPIQGEGGVILPPPGYLTAVRKLCDEFGALMILDEVQTGMGRTGKMFACEHENVQPDILCLAKALGGGVMPIGATIATEEVFSVLFDNPFLHTTTFGGNPLACAAALATINVLLEQNLPAQAEQKGDMLLDGFRQLAREYPDLVQEARGKGMLMAIEFVDNEIGYNFASEMFRQRVLVAGTLNNAKTIRIEPPLTLTIEQCELVIKAARKALAAMRVSVEEA	4.74 ± 0.26	3.09 ± 0.83	0.385 ± 0.062	0.49 ± 0.12	0.289 ± 0.0059	0.378 ± 0.04	0.631 ± 0.033	1.06 ± 0.45	0.848 ± 0.61	0.594 ± 0.085	0.667 ± 0.37	1.3 ± 0.8
MNRTDELRTARIESLVTPAELALRYPVTPGVATHVTDSRRRIEKILNGEDKRLLVIIGPCSIHDLTAAMEYATRLQSLRNQYQSRLEIVMRTYFEKPRTVVGWKGLISDPDLNGSYRVNHGLELARKLLLQVNELGVPTATEFLDMVTGQFIADLISWGAIGARTTESQIHREMASALSCPVGFKNGTDGNTRIAVDAIRAARASHMFLSPDKNGQMTIYQTSGNPYGHIIMRGGKKPNYHADDIAAACDTLHEFDLPEHLVVDFSHGNCQKQHRRQLEVCEDICQQIRNGSTAIAGIMAESFLREGTQKIVGSQPLTYGQSITDPCLGWEDTERLVEKLASAVDTRF	5.25 ± 0.74	–	4.47 ± 0.041	4.88 ± 0.15	4.62 ± 0.51	3.089 ± 0.021	6.53 ± 1.7	10.3 ± 0.59	5.28 ± 0.75	7.35 ± 0.6	6.03 ± 0.34	11.8 ± 0.39
MNSFNEGVVSPLLSFWRRSLMLAGALLLTACSHNSSLPPFTASGFAEDQGAVRIWRKDSGDNVHLLAVFSPWRSGDTTTREYRWQGDNLTLININVYSKPPVNIRARFDDRGDLSFMQRESDGEKQQLSNDQIDLYRYRADQIRQISDALRQGRVVLRQGRWHAMEQTVTTCEGQTIKPDLDSQAIAHIERRQSRSSVDVSVAWLEAPEGSQLLLVANSDFCRWQPNEKTF	6.47 ± 1.2	7.12 ± 0.33	6.4	6.98	6.11 ± 0.48	3.17 ± 0.14	–	11.2	6.3 ± 0.074	13.2 ± 1.6	6.31 ± 0.4	14.1 ± 1.4
MNSHNITNESLALALMLVVVAILISHKEKLALEKDILWSVGRAIIQLIIVGYVLKYIFSVDDASLTLLMVLFICFNAAWNAQKRSKYIAKAFISSFIAITVGAGITLAVLILSGSIEFIPMQVIPIAGMIAGNAMVAVGLCYNNLGQRVISEQQQIQEKLSLGATPKQASAILIRDSIRAALIPTVDSAKTVGLVSLPGMMSGLIFAGIDPVKAIKYQIMVTFMLLSTASLSTIIACYLTYRKFYNSRHQLVVTQLKKK	–	6.44 ± 0.17	6 ± 0.27	5.893 ± 0.034	5.86 ± 0.42	3.19 ± 0.54	5.5591 ± 0.0054	9.93 ± 4.5	5.87 ± 0.81	8.27 ± 3	6.28 ± 0.1	–
MNSIFTEENLLAFTTAARFGSFSKAAEELGLTTSAISYTIKRMETGLDVVLFTRSTRSIELTESGRYFFRKATDLLNDFYAIKRRIDTISQGIEARVRICINQLLYTPKHTARLLQVLKKQFPTCQITVTTEVYNGVWDAIINNQANIAIGAPDTLLDGGGIDYTEIGAIRWAFAIAPDHPLAFVPEPIAESQLRLYPNIMVEDTAHTINKKVGWLLHGQESILVPDFNTKCQCQILGEGIGFLPDYMVREAMTQSLLVTRQIHNPRQDSRMLLATQHSATGQVTQWIKKQFAPNGILTGIYQDLLHREN	5.9	–	–	–	–	–	–	–	–	–	–	–
MNSLTTHYRRSQLIALPVPGGKAKVEYCYAVNVPGDREIVTHSFAEWAVGDFNRQKETVLCDKLTAGSKITTECPSESFVGSRKHNGLSTSAKVMSMNASARSNSFVVNSGK	1.84	–	–	–	–	–	–	–	–	–	–	–
MNTALAQQIANEGGVEAWMIAQQHKSLLRFLTCGSVDDGKSTLIGRLLHDTRQIYEDQLSSLHNDSKRHGTQGEKLDLALLVDGLQAEREQGITIDVAYRYFSTEKRKFIIADTPGHEQYTRNMATGASTCELAILLIDARKGVLDQTRRHSFISTLLGIKHLVVAINKMDLVDYSEETFTRIREDYLTFAGQLPGNLDIRFVPLSALEGDNVASQSESMPWYSGPTLLEVLETVEIQRVVDAQPMRFPVQYVNRPNLDFRGYAGTLASGRVEVGQRVKVLPSGVESNVARIVTFDGDREEAFAGEAITLVLTDEIDISRGDLLLAADEALPAVQSASVDVVWMAEQPLSPGQSYDIKIAGKKTRARVDGIRYQVDINNLTQREVENLPLNGIGLVDLTFDEPLVLDRYQQNPVTGGLIFIDRLSNVTVGAGMVHEPVSQATAAPSEFSAFELELNALVRRHFPHWGARDLLGDK	4.99 ± 0.27	4.67 ± 0.42	1.18 ± 0.2	1.23 ± 0.018	1.13 ± 0.045	1.58 ± 0.051	1.61 ± 0.17	2.08 ± 0.23	1.29 ± 0.057	1.39 ± 0.11	1.67 ± 0.47	2.32 ± 0.57
MNTDTFMCSSDEKQTRSPLSLYSEYQRMEIEFRAPHIMPTSHWHGQVEVNVPFDGDVEYLINNEKVNINQGHITLFWACTPHQLTDTGTCQSMAIFNLPMHLFLSWPLDKDLINHVTHGMVIKSLATQQLSPFEVRRWQQELNSPNEQIRQLAIDEIGLMLKRFSLSGWEPILVNKTSRTHKNSVSRHAQFYVSQMLGFIAENYDQALTINDVAEHVKLNANYAMGIFQRVMQLTMKQYITAMRINHVRALLSDTDKSILDIALTAGFRSSSRFYSTFGKYVGMSPQQYRKLSQQRRQTFPG [P0ACH8]	–	2.09 ± 0.21	2.5	–	1.89	2.14 ± 0.34	3.43 ± 0.17	4.03 ± 0.28	–	–	–	4.99 ± 1.6
MNTFSQVWVFSDTPSRLPELMNGAQALANQINTFVLNDADGAQAIQLGANHVWKLNGKPDDRMIEDYAGVMADTIRQHGADGLVLLPNTRRGKLLAAKLGYRLKAAVSNDASTVSVQDGKATVKHMVYGGLAIGEERIATPYAVLTISSGTFDAAQPDASRTGETHTVEWQAPAVAITRTATQARQSNSVDLDKARLVVSVGRGIGSKENIALAEQLCKAIGAELACSRPVAENEKWMEHERYVGISNLMLKPELYLAVGISGQIQHMVGANASQTIFAINKDKNAPIFQYADYGIVGDAVKILPALTAALAR	–	–	–	–	–	2.87 ± 0.035	5.9	8.89 ± 0.4	–	–	–	–
